Data published in paper PMC7248283.
Where “and” joins values, the source holds several entries; their conditions need not be identical. Equal values may be shown once.

How the values were obtained:
[1] = target: FliS (flagellar export chaperone FliS of Helicobacter pylori), GST tag removed (Helicobacter pylori (strain 26695)); test: MST; labelled FliS or FliS-FlaBc (40 nM) mixed with HP1076 (6.2 μM to 0.189 nM, or 3.83 mM to 117 μM); 20 mM Tris pH 7.5, 150 mM NaCl, 2 mM DTT; 21.5°C
[2] = target: FliS-FlaBc complex (Helicobacter pylori (strain 26695) | Helicobacter pylori) (UniProt Q07911); test: as above
[3] = target: GST-FliS (Helicobacter pylori (strain 26695)); test: pull-down; competitive: the same experiment as a5, for purified HP1076 added at molar ratios to GST-FliS of 0, 0.5:1, 5:1 and 50:1 in the presence of H. pylori lysate; read-out is the flagellin band

B1: His-HP1076 (natural protein)
chain: MDILKTLQKHLGDVETSDFTTNAIEKSQQIAKFSRDMKNINESVGALQVLQIACKKLFNKSMGLEDKDALQASIIKQELREIVENCQFLASPLFDTQLNIAINDEIFSMIVVNPLDLLENVGEFQAYLEEKLNEIKELLGYLSESLSNPKAFMPSFSNQSLKDLLSDNLRA
**Q.** Which Kd [1] does the source give for B1 here?
**A.** Its Kd is 0.015 µM.

**Q.** And the Kd [2]?
**A.** The Kd was 1600 µM.

**Q.** And the binding of flagellin (FlaA/FlaB band) to GST-FliS left when saturated by HP1076 (fraction of the binding without HP1076) [3]?
**A.** Its binding of flagellin (FlaA/FlaB band) to GST-FliS left when saturated by HP1076 (fraction of the binding without HP1076) is 0.2 and 0.25.
